Data set [1] addresses T1, F10B5.3 (F10B5.3) (Caenorhabditis elegans) (UniProt Q09534).
T1 sequence: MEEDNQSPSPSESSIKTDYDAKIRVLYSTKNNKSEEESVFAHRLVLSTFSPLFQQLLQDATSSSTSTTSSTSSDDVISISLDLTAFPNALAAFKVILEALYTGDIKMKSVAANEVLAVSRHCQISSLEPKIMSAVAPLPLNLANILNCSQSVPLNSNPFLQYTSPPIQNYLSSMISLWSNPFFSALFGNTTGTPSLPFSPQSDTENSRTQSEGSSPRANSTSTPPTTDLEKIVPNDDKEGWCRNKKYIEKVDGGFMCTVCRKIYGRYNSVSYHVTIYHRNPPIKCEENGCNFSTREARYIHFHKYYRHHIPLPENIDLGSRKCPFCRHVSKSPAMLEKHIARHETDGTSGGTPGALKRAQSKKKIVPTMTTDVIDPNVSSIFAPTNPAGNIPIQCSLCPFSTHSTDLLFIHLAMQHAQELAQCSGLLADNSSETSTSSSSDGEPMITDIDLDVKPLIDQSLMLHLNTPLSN

Data set [2] deals with T2, hsf-1 (Y53C10A.12) (Caenorhabditis elegans) (UniProt G5EFT5).
T2 sequence: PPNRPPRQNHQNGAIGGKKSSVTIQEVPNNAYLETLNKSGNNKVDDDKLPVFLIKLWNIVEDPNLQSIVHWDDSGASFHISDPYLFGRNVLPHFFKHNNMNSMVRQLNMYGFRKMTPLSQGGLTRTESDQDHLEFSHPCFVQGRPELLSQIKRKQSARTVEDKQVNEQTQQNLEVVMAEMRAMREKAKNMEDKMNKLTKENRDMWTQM

The target in data set [3] is T3, D1005.3 (D1005.3) (Caenorhabditis elegans) (UniProt Q18909).
T3 sequence: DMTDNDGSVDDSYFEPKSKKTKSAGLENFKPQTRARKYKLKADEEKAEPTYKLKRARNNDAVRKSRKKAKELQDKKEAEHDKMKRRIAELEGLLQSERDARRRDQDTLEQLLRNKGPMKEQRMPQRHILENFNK

Data set [4] addresses T4, T07C12.11 (T07C12.11) (Caenorhabditis elegans) (UniProt G5EGG9).
T4 sequence: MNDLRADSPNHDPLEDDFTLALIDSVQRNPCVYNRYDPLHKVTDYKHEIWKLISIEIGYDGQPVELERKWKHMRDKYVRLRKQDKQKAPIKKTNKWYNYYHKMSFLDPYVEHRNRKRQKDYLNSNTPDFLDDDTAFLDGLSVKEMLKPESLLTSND

Data set [5] addresses T5, F17A9.3 (F17A9.3) (Caenorhabditis elegans) (UniProt O16213).
T5 sequence: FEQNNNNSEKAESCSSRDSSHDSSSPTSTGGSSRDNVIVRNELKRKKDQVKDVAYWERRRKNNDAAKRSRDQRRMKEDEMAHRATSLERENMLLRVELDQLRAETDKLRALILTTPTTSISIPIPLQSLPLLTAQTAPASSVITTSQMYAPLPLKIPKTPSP

Data set [6] has as its target T6, atf-2 (K08F8.2) (Caenorhabditis elegans) (UniProt Q21361).
T6 sequence: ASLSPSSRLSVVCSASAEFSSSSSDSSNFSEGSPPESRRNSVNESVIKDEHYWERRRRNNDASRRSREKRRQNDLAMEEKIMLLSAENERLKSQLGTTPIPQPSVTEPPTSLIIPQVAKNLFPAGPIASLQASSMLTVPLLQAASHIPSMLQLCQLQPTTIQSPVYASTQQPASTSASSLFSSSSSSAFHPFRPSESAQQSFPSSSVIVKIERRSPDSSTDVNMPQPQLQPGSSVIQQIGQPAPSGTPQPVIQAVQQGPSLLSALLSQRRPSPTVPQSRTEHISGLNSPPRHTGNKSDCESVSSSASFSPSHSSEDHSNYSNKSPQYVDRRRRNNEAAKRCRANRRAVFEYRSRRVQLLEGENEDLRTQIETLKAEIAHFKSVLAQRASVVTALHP

For data set [7], the target named is T7, Y51H4A.4 (Y51H4A.4) (Caenorhabditis elegans) (UniProt Q9NAE4).
T7 sequence: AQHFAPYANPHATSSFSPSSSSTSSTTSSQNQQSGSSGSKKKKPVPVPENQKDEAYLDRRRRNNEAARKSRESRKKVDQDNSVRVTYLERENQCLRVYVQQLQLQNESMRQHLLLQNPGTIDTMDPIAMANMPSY

Data set [8] concerns the target T8, atf-5 (T04C10.4) (Caenorhabditis elegans) (UniProt Q22156).
T8 sequence: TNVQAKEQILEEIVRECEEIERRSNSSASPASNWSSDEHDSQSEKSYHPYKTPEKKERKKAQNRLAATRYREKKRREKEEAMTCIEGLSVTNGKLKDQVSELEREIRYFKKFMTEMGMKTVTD

Data set [9] addresses T9, atf-6 (F45E6.2) (Caenorhabditis elegans) (UniProt Q20435).
T9 sequence: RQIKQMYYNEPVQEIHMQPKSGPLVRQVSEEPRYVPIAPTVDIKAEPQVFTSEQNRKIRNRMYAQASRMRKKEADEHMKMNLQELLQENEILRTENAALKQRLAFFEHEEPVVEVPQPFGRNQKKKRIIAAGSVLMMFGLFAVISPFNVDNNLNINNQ

The target in data set [10] is atf-7 (C07G2.2) (Caenorhabditis elegans) (UniProt Q86MD3).
Chain of atf-7 (C07G2.2) (Caenorhabditis elegans) (Q86MD3 339-508): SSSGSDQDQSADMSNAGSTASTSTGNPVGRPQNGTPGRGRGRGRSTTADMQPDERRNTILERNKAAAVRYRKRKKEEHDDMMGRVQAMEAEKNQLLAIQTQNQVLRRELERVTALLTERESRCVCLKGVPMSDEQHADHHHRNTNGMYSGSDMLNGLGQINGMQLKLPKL
The target of data set [11] is T10, W08E12.1 (W08E12.1) (Caenorhabditis elegans) (UniProt Q9N5A8).
T10 sequence: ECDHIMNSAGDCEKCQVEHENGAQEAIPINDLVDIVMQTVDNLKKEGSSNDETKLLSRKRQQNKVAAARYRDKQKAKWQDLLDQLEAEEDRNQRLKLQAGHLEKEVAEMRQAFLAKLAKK

The target in data set [12] is T11, zip-3 (W07G1.3) (Caenorhabditis elegans) (UniProt Q9XUK2).
T11 sequence: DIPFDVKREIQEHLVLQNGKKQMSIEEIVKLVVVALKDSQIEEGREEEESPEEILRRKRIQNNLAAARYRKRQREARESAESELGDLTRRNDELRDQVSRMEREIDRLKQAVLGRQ

The target of data set [13] is T12, xbp-1 (R74.3) (Caenorhabditis elegans) (UniProt G5EE07).
T12 sequence: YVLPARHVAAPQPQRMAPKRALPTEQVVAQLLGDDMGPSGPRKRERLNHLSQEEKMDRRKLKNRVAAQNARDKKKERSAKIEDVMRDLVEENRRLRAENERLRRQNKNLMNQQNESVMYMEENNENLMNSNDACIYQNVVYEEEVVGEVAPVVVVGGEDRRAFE

For data set [14], the target named is T13, ref-2 (C47C12.3) (Caenorhabditis elegans) (UniProt Q7JNM3).
T13 sequence: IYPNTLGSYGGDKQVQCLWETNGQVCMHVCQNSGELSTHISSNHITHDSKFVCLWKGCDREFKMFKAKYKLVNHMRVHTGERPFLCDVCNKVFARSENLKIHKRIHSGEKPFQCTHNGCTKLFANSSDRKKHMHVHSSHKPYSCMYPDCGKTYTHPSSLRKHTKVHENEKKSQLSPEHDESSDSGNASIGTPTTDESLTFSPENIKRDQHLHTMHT

Data set [15] deals with T14, pop-1 (W10C8.2) (Caenorhabditis elegans) (UniProt Q10666).
T14 sequence: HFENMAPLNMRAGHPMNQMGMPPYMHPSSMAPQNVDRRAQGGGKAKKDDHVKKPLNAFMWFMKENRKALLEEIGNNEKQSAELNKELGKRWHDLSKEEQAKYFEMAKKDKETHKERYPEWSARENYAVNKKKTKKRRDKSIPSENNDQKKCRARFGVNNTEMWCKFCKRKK

The target in data set [16] is T15, T27F2.4 (T27F2.4) (Caenorhabditis elegans) (UniProt Q22835).
T15 sequence: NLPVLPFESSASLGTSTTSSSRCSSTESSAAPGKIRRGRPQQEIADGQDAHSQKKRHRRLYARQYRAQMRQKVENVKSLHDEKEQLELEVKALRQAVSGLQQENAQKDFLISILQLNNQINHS

The text below walks through data of article PMC4434323.

As to “TTCTAGAA (double strand) [8-mer TTCTAGAA]”, the values for the binding signal (PBM E-score (-0.5 to 0.5)) in data set [1] and in data set [2] were 0.477 and 0.498, respectively.
“TTGCGAAA (double strand) [8-mer TTGCGAAA]” had a binding signal (PBM E-score (-0.5 to 0.5)) in data set [3] of 0.466.
Regarding “TTACGTAA (double strand) [8-mer TTACGTAA]”, the binding signal (PBM E-score (-0.5 to 0.5)) in [4] was found to be 0.496; in [5] it was 0.498; in [6] it was 0.478; in data set [7], 0.498.
Consider “TGACGTAA (double strand) [8-mer TGACGTAA]”, for which the binding signal (PBM E-score (-0.5 to 0.5)) in data set [8] is 0.49; in data set [9] it was 0.459; in data set [7], 0.454; in data set [10] it was 0.495; in [11] it was 0.47.
In the case of “TGACGTCA (double strand) [8-mer TGACGTCA]”, the binding signal (PBM E-score (-0.5 to 0.5)) in data set [8], in data set [12], in data set [10] and in data set [11] was 0.5 each time.
Regarding “TTCCAGAA (double strand) [8-mer TTCCAGAA]”, the figures for the binding signal (PBM E-score (-0.5 to 0.5)) in [1] and in data set [2] were 0.491 and 0.489, respectively.
As to “ACGTCATC (double strand) [8-mer ACGTCATC]”, the binding signal (PBM E-score (-0.5 to 0.5)) worked out at 0.49 in data set [8], 0.493 in data set [12], 0.471 in [13] and 0.499 in data set [10].
For “CAGCGGGA (double strand) [8-mer CAGCGGGA]”, in data set [14], the binding signal (PBM E-score (-0.5 to 0.5)) turned out to be 0.483.
In [15], “ATCAAAGA (double strand) [8-mer ATCAAAGA]” registered a binding signal (PBM E-score (-0.5 to 0.5)) of 0.456.
Sequence “CTTTGATC (double strand) [8-mer CTTTGATC]” registered a binding signal (PBM E-score (-0.5 to 0.5)) in data set [15] of 0.451.
As for “ATGACGTG (double strand) [8-mer ATGACGTG]”, the binding signal (PBM E-score (-0.5 to 0.5)) is 0.485 in [8], 0.494 in [12], 0.451 in data set [13] and 0.499 in data set [10].
In the case of “TTACGAAA (double strand) [8-mer TTACGAAA]”, the binding signal (PBM E-score (-0.5 to 0.5)) in data set [16] is 0.463; in [3], 0.464.
